How the values were obtained:
Experiment in all cases: IP/MS, LZTR1 R810W-FLAG, U87
[1] = biological target: KNL1 (human, UniProt Q8NG31 1-2342, limits assumed)
Method in brief: (§1)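 Extracted peptides in 3% acetonitrile/0.1% formic acid ran on a 50 cm C18 column into an Orbitrap Fusion, with MaxQuant identification and spectral counting.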

[2] = biological target: T1, ATAD2 (human, UniProt Q6PL18 1-1390, limits assumed)
T1 sequence (looked up): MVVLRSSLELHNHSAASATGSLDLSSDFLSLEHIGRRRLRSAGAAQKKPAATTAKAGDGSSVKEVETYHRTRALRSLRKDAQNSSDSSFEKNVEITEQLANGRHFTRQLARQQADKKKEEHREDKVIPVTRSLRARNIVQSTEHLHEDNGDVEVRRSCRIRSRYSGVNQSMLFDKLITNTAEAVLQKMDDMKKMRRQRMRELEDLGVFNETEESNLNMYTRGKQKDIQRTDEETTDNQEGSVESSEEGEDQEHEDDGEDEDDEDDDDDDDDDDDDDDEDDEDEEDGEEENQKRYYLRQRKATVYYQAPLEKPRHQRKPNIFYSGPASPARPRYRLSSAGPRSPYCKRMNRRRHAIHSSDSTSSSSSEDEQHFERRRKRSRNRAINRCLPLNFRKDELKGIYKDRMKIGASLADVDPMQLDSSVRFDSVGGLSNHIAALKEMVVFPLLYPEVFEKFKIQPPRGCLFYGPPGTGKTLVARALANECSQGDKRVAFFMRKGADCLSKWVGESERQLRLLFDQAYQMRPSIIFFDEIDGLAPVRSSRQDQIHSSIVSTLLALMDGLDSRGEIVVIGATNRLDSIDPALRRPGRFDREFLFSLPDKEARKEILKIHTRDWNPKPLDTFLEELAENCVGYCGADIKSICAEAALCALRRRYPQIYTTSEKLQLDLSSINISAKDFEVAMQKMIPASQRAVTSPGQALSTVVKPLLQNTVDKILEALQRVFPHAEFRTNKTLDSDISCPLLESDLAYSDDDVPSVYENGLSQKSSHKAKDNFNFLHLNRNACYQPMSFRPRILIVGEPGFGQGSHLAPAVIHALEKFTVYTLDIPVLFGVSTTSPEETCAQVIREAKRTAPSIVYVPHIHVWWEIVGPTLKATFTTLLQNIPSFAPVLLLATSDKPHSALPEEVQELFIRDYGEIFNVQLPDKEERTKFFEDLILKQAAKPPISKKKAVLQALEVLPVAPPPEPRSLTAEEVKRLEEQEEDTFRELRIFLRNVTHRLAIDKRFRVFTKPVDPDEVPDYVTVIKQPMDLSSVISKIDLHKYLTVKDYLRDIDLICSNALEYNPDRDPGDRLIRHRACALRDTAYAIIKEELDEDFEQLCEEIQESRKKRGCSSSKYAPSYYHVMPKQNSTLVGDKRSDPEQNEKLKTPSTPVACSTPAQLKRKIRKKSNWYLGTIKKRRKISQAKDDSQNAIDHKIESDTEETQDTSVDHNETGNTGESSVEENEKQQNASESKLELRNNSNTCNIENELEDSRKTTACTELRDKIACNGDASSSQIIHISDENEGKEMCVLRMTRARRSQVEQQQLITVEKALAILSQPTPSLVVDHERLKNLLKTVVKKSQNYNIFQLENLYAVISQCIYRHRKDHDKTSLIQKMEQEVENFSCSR
Method in brief: as §1

[3] = biological target: T2, LONP2 (human, UniProt Q86WA8 2-852, limits assumed)
T2 sequence (looked up): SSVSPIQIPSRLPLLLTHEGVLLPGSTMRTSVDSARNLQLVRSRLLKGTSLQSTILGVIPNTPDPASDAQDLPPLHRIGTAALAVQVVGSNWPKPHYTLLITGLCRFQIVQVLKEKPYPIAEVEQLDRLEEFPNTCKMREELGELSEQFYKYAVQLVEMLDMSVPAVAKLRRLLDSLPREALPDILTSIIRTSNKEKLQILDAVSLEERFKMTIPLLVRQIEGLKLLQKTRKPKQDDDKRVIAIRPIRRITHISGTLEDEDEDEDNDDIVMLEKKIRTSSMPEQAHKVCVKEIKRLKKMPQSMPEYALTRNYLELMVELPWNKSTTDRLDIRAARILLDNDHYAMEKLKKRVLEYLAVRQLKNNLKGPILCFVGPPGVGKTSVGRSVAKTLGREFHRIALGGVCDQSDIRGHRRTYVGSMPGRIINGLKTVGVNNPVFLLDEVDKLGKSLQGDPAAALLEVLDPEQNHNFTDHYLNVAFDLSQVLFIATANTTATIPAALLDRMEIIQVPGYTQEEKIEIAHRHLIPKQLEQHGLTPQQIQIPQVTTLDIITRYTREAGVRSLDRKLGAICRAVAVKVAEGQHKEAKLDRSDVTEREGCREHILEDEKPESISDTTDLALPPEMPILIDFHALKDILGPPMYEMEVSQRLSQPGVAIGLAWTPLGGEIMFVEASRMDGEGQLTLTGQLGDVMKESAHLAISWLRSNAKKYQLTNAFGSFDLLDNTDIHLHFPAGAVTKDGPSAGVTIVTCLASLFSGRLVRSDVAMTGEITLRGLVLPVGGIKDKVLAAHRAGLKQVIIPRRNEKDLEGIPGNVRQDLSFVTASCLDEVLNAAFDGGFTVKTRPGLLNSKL
Method in brief: as §1

Measured: binding result

Chain of KNL1 (Q8NG31 whole entry, the tested form may be a part): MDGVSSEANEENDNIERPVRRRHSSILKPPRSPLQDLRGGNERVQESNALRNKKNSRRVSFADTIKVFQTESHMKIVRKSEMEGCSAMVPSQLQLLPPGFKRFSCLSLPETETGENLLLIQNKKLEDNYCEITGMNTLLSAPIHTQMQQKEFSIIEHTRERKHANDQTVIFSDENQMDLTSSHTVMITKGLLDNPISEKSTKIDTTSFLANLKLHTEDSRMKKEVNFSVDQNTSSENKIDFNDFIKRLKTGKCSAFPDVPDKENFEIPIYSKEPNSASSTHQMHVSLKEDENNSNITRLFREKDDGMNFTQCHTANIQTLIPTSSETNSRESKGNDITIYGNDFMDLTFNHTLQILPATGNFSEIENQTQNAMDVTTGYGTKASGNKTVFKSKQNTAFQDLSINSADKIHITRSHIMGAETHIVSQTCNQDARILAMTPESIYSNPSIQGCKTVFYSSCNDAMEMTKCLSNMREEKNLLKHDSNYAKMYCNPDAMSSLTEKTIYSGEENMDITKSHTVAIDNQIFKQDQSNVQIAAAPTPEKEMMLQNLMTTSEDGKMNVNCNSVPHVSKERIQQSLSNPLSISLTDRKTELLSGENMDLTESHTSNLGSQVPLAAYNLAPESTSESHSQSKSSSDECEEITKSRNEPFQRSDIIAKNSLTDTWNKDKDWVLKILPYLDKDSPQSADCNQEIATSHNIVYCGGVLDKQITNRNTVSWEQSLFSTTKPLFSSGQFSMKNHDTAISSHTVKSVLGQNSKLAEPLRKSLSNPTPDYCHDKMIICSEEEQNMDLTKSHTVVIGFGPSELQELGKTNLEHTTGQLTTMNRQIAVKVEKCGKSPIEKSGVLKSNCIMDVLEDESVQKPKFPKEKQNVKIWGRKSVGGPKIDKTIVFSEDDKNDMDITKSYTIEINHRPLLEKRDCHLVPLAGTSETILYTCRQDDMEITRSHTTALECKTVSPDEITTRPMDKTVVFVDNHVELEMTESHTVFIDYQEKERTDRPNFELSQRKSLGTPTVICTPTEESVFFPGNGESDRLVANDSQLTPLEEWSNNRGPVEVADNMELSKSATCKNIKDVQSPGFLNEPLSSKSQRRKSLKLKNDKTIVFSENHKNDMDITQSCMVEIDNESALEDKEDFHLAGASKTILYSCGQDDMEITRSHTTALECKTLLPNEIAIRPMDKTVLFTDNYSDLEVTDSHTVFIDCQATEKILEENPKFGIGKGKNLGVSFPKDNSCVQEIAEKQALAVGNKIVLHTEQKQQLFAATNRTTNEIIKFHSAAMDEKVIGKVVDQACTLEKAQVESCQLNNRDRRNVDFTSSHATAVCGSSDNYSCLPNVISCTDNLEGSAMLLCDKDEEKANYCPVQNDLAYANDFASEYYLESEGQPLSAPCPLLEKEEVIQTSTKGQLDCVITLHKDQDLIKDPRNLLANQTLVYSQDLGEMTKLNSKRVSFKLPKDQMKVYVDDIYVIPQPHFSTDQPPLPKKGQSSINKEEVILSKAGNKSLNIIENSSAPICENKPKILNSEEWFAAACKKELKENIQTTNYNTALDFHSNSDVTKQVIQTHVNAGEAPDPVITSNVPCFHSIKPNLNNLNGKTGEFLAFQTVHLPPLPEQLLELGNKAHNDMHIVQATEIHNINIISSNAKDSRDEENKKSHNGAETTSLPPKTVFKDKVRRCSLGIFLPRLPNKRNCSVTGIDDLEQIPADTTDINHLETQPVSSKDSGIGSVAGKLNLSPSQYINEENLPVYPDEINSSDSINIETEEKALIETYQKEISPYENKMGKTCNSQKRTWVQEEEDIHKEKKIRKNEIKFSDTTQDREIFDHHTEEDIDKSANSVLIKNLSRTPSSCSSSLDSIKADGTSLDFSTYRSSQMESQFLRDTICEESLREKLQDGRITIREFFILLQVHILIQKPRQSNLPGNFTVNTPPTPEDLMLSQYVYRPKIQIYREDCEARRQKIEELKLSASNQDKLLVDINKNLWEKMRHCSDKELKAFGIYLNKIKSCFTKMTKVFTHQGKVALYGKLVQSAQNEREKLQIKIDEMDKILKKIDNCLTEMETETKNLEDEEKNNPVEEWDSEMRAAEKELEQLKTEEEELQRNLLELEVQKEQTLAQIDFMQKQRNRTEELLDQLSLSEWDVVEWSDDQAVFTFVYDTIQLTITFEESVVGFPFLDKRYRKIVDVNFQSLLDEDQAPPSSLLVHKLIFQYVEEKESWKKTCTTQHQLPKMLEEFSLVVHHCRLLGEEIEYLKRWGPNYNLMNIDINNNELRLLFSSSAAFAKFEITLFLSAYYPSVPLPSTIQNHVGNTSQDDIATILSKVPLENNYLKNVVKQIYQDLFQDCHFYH

B1: LZTR1 R810W-FLAG (other, human, UniProt Q8N653 1-840, looked up)
chain: MAGPGSTGGQIGAAALAGGARSKVAPSVDFDHSCSDSVEYLTLNFGPFETVHRWRRLPPCDEFVGARRSKHTVVAYKDAIYVFGGDNGKTMLNDLLRFDVKDCSWCRAFTTGTPPAPRYHHSAVVYGSSMFVFGGYTGDIYSNSNLKNKNDLFEYKFATGQWTEWKIEGRLPVARSAHGATVYSDKLWIFAGYDGNARLNDMWTIGLQDRELTCWEEVAQSGEIPPSCCNFPVAVCRDKMFVFSGQSGAKITNNLFQFEFKDKTWTRIPTEHLLRGSPPPPQRRYGHTMVAFDRHLYVFGGAADNTLPNELHCYDVDFQTWEVVQPSSDSEVGGAEVPERACASEEVPTLTYEERVGFKKSRDVFGLDFGTTSAKQPTQPASELPSGRLFHAAAVISDAMYIFGGTVDNNIRSGEMYRFQFSCYPKCTLHEDYGRLWESRQFCDVEFVLGEKEECVQGHVAIVTARSRWLRRKITQARERLAQKLEQEAAPVPREAPGVAAGGARPPLLHVAIREAEARPFEVLMQFLYTDKIKYPRKGHVEDVLLIMDVYKLALSFQLCRLEQLCRQYIEASVDLQNVLVVCESAARLQLSQLKEHCLNFVVKESHFNQVIMMKEFERLSSPLIVEIVRRKQQPPPRTPLDQPVDIGTSLIQDMKAYLEGAGAEFCDITLLLDGHPRPAHKAILAARSSYFEAMFRSFMPEDGQVNISIGEMVPSRQAFESMLRYIYYGEVNMPPEDSLYLFAAPYYYGFYNNRLQAYCKQNLEMNVTVQNVLQILEAADKTQALDMKRHCLHIIVHQFTKVSKLPTLWSLSQQLLLDIIDSLASHISDKQCAELGADI
notes: Stably expressed in U87 cells by lentivirus; also called LZTR1-FLAG-R810W; LZTR1 RW; not shown: FLAG tag
binds: all assays above

Reference: patent publication US20250262210A1 (TRUSTEES OF COLUMBIA UNIVERSITY IN THE CITY OF NEW YORK, published 2025)
